The text below walks through data of paper PMC11199644, “Structural and mechanistic insights into a lysosomal membrane enzyme HGSNAT involved in Sanfilippo syndrome” (Nature Communications, 2024).

The data set concerns the molecule itself. The data set is described as follows: cryo-EM structure; purified HGSNAT in 20 mM HEPES pH 7.4, 150 mM NaCl, 0.01% GDN; apo (two conformations) or with acetyl-CoA, CoA, acetyl-CoA + MU-βGlcN, CoA + MUF-NAG; six structures, all dimers.

B1: heparan sulfate acetyl-CoA:α-glucosaminide N-acetyltransferase (HGSNAT) (enzyme, human, UniProt Q68CP4-2 1-635, looked up)
chain: MSGAGRALAALLLAASVLSAALLAPGGSSGRDAQAAPPRDLDKKRHAELKMDQALLLIHNELLWTNLTVYWKSECCYHCLFQVLVNVPQSPKAGKPSAAAASVSTQHGSILQLNDTLEEKEVCRLEYRFGEFGNYSLLVKNIHNGVSEIACDLAVNEDPVDSNLPVSIAFLIGLAVIIVISFLRLLLSLDDFNNWISKAISSRETDRLINSELGSPSRTDPLDGDVQPATWRLSALPPRLRSVDTFRGIALILMVFVNYGGGKYWYFKHASWNGLTVADLVFPWFVFIMGSSIFLSMTSILQRGCSKFRLLGKIAWRSFLLICIGIIIVNPNYCLGPLSWDKVRIPGVLQRLGVTYFVVAVLELLFAKPVPEHCASERSCLSLRDITSSWPQWLLILVLEGLWLGLTFLLPVPGCPTGYLGPGGIGDFGKYPNCTGGAAGYIDRLLLGDDHLYQHPSSAVLYHTEVAYDPEGILGTINSIVMAFLGVQAGKILLYYKARTKDILIRFTAWCCILGLISVALTKVSENEGFIPVNKNLWSLSYVTTLSSFAFFILLVLYPVVDVKGLWTGTPFFYPGMNSILVYVGHEVFENYFPFQWKLKDNQSHKEHLTQNIVATALWVLIAYILYRKKIFWKI
notes: human HGSNAT, open reading frame of UniProt Q68CP4-2 (short isoform 2, 28 residues from the N-terminal missing); The purified sample held two species, the full-length protein and the auto-cleaved form (alpha and beta chains still together); A thrombin site lies between HGSNAT and the tags, so some residues of it may be left after cleavage; also called TMEM76; heparan-α-glucosaminide …
With B1, the stoichiometry N (as a rule, a count of units in the complex or per binding partner) worked out at 2.
